system: Escherichia coli TOP10; test: shrunken log2 fold change of peptide-encoding DNA abundance (4.5 h post-induction vs induction); higher = less antimicrobial activity (less host growth inhibition); conditions: time post-induction: 4.5 h; library: site-saturation at positions 5, 18, 19, 20
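Note: peptides expressed intracellularly from a pBAD plasmid library in pooled LB shake-flask culture, induced with 0.3% L-arabinose, DNA abundance read by NGS, three biological replicates, DESeq2 with apeglm shrinkage.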

Sequence | shrunken log2 fold change
RRIRERPPRLPRPRPRPVASPRP | -0.0471
RRIRCRPPRLPRPRPRPQQQPRP | 0.339
RRIRVRPPRLPRPRPRPLDMPRP | -0.024
RRIRCRPPRLPRPRPRPYCDPRP | -0.623
RRIRCRPPRLPRPRPRPQQNPRP | 0.0237
RRIRERPPRLPRPRPRPHEQPRP | -0.0112
RRIRYRPPRLPRPRPRPEFQPRP | -0.47
RRIRFRPPRLPRPRPRPLMEPRP | -0.00741
RRIRNRPPRLPRPRPRPQMYPRP | -0.864
RRIRDRPPRLPRPRPRPKTGPRP | -0.111
RRIRFRPPRLPRPRPRPVCCPRP | -0.0027
RRIRLRPPRLPRPRPRPAMTPRP | -0.113
RRIRKRPPRLPRPRPRPEYQPRP | 0.0313
RRIRNRPPRLPRPRPRPGSWPRP | 0.257
RRIRKRPPRLPRPRPRPQMHPRP | 0.0713
RRIRNRPPRLPRPRPRPKCTPRP | 0.119
RRIRWRPPRLPRPRPRPFVDPRP | 0.0365
RRIRMRPPRLPRPRPRPPNCPRP | 0.0335
RRIRSRPPRLPRPRPRPAYTPRP | 0.0457
RRIRHRPPRLPRPRPRPTCCPRP | -0.125
RRIRMRPPRLPRPRPRPIACPRP | 0.106
RRIRQRPPRLPRPRPRPNWFPRP | -0.151

Sequence | shrunken log2 fold change
RRIRFRPPRLPRPRPRPREEPRP | -0.0431
RRIRIRPPRLPRPRPRPMDIPRP | -0.911
RRIRCRPPRLPRPRPRPKCFPRP | -0.372
RRIRIRPPRLPRPRPRPSFPPRP | -0.779
RRIRYRPPRLPRPRPRPSWQPRP | -0.526
RRIRARPPRLPRPRPRPEYMPRP | -0.276
RRIRMRPPRLPRPRPRPLPDPRP | 2.49
RRIRKRPPRLPRPRPRPKYPPRP | 0.0162
RRIRVRPPRLPRPRPRPWPHPRP | -0.103
RRIRCRPPRLPRPRPRPKNMPRP | -0.727
RRIRRRPPRLPRPRPRPYVVPRP | -0.121
RRIRIRPPRLPRPRPRPFPWPRP | -0.519
RRIRRRPPRLPRPRPRPDGPPRP | 0.215
RRIRHRPPRLPRPRPRPSAMPRP | 0.06
RRIRPRPPRLPRPRPRPEFGPRP | 0.327
RRIRPRPPRLPRPRPRPYVFPRP | -0.659
RRIRDRPPRLPRPRPRPLTKPRP | 0.0084
RRIRVRPPRLPRPRPRPKMFPRP | -0.056
RRIRWRPPRLPRPRPRPAWGPRP | 0.477
RRIRGRPPRLPRPRPRPMAGPRP | 0.0763
RRIRIRPPRLPRPRPRPVGLPRP | -0.0289
RRIRSRPPRLPRPRPRPWSAPRP | -0.027

Sequence | shrunken log2 fold change
RRIRTRPPRLPRPRPRPVMQPRP | -0.0482
RRIRSRPPRLPRPRPRPNKLPRP | -0.643
RRIRWRPPRLPRPRPRPHWCPRP | -0.062
RRIRQRPPRLPRPRPRPDLNPRP | 0.0947
RRIRTRPPRLPRPRPRPTFHPRP | -0.174
RRIRARPPRLPRPRPRPCVFPRP | 0.39
RRIRWRPPRLPRPRPRPIYFPRP | -0.198
RRIRHRPPRLPRPRPRPFFVPRP | -0.224
RRIRRRPPRLPRPRPRPWWAPRP | 0.0813
RRIRFRPPRLPRPRPRPIMLPRP | -0.205
RRIRRRPPRLPRPRPRPGNCPRP | 0.177
RRIRSRPPRLPRPRPRPNARPRP | -0.119
RRIRKRPPRLPRPRPRPPHDPRP | 0.559
RRIRQRPPRLPRPRPRPKYEPRP | 0.0304
RRIRLRPPRLPRPRPRPSCTPRP | -0.501
RRIRARPPRLPRPRPRPRLPPRP | 0.667
RRIRFRPPRLPRPRPRPVFDPRP | -0.258
RRIRARPPRLPRPRPRPHGHPRP | 0.125
RRIRARPPRLPRPRPRPFCEPRP | 0.303
RRIRGRPPRLPRPRPRPAEHPRP | 0.352
RRIRTRPPRLPRPRPRPKDEPRP | -0.0319
RRIRPRPPRLPRPRPRPAHNPRP | -0.114

Sequence | shrunken log2 fold change
RRIRLRPPRLPRPRPRPYTTPRP | -0.488
RRIRHRPPRLPRPRPRPVFVPRP | -0.182
RRIRARPPRLPRPRPRPIYVPRP | -0.25
RRIRCRPPRLPRPRPRPVNWPRP | 0.393
RRIRGRPPRLPRPRPRPDAKPRP | 2
RRIRLRPPRLPRPRPRPIGPPRP | 0.0835
RRIRNRPPRLPRPRPRPLLTPRP | -0.046
RRIRVRPPRLPRPRPRPAMPPRP | 0.0637
RRIRARPPRLPRPRPRPQIFPRP | -0.0149
RRIRKRPPRLPRPRPRPRYQPRP | -0.0143
RRIRARPPRLPRPRPRPNRWPRP | 0.331
RRIRNRPPRLPRPRPRPAVLPRP | 0.00424
RRIRRRPPRLPRPRPRPKLQPRP | 0.179
RRIRKRPPRLPRPRPRPKIKPRP | 0.447
RRIRMRPPRLPRPRPRPQPIPRP | -0.0134
RRIRQRPPRLPRPRPRPLCIPRP | -0.28
RRIRHRPPRLPRPRPRPGATPRP | 0.0387
RRIRQRPPRLPRPRPRPPDHPRP | -0.27
RRIRLRPPRLPRPRPRPKISPRP | -0.0626
RRIRIRPPRLPRPRPRPWNSPRP | -0.592
RRIRLRPPRLPRPRPRPLHGPRP | 0.0823
RRIRFRPPRLPRPRPRPCCHPRP | -0.415

Sequence | shrunken log2 fold change
RRIRMRPPRLPRPRPRPTGIPRP | -0.149
RRIRGRPPRLPRPRPRPAPFPRP | 0.722
RRIRFRPPRLPRPRPRPSHLPRP | -0.737
RRIRTRPPRLPRPRPRPMWAPRP | 0.0473
RRIRWRPPRLPRPRPRPSMLPRP | -0.369
RRIRWRPPRLPRPRPRPGFCPRP | 0.524
RRIRHRPPRLPRPRPRPVIYPRP | -0.678
RRIRRRPPRLPRPRPRPKWWPRP | 0.579
RRIRKRPPRLPRPRPRPCGQPRP | 0.0682
RRIRRRPPRLPRPRPRPVHRPRP | -0.0888
RRIRTRPPRLPRPRPRPYINPRP | -0.879
RRIRYRPPRLPRPRPRPLKLPRP | -0.772
RRIRARPPRLPRPRPRPAWSPRP | 0.329
RRIRARPPRLPRPRPRPYEQPRP | 0.0674
RRIRWRPPRLPRPRPRPIHQPRP | 0.0226
RRIRLRPPRLPRPRPRPADQPRP | 0.0203
RRIRARPPRLPRPRPRPCFTPRP | -0.172
RRIRMRPPRLPRPRPRPYEGPRP | -0.13
RRIRQRPPRLPRPRPRPGLRPRP | 0.285
RRIRNRPPRLPRPRPRPNKIPRP | -0.658
RRIRVRPPRLPRPRPRPGEHPRP | -0.035

— the supplement of paper PMC9112550, “Optimization of the antimicrobial peptide Bac7 by deep mutational scanning” (BMC Biology, 2022)
